US20050287542A1

Key:
[1] = target: endogenous CBP/p300 in HEK293 cells; assay: cell-based or functional assay
[2] = target: full-length p300 (exogenous, CMV expression vector); assay: cell-based or functional assay
CBP KIX variant Y658F = CBP KIX variant Y658F (UniProt P45481); assay: fluorescence polarization
[3] = target: CBP KIX variant LL652-3AA (UniProt P45481); assay: fluorescence polarization
CBP KIX variant K606A = CBP KIX variant K606A (UniProt P45481); assay: fluorescence polarization
CBP KIX variant K606A, sequence (P45481 586-665 K606A limits assumed): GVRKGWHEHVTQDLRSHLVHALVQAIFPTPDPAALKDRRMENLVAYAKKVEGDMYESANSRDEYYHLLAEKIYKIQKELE

CBP KIX variant K662A = CBP KIX variant K662A (UniProt P45481); assay: fluorescence polarization
CBP KIX variant K662A, sequence (P45481 586-665 K662A limits assumed): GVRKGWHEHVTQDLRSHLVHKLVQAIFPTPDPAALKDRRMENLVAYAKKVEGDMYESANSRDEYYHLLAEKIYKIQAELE

[4] = target: GST-KIXY650A (Y650A variant of CBP KIX) (UniProt P45481); assay: fluorescence polarization
GST-KIXY650A (Y650A variant of CBP KIX), sequence (P45481 586-665 Y650A limits assumed): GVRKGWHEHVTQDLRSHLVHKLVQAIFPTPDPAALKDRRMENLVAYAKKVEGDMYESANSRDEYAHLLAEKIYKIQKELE

CBP KIX variant L603A = CBP KIX variant L603A (UniProt P45481); assay: fluorescence polarization
CBP KIX variant L603A, sequence (P45481 586-665 L603A limits assumed): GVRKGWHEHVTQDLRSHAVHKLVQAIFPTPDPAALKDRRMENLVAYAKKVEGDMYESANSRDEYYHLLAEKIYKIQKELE

CBP KIX variant E655A = CBP KIX variant E655A (UniProt P45481); assay: fluorescence polarization
CBP KIX variant E655A, sequence (P45481 586-665 E655A limits assumed): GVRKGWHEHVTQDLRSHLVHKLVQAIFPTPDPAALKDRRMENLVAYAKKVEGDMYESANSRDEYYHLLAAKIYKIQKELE

CBP KIX variant I657A = CBP KIX variant I657A (UniProt P45481); assay: fluorescence polarization
CBP KIX variant I657A, sequence (P45481 586-665 I657A limits assumed): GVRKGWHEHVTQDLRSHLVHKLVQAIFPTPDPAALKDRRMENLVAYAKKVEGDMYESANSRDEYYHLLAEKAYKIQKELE

CBP KIX variant L599A = CBP KIX variant L599A (UniProt P45481); assay: fluorescence polarization
CBP KIX variant L599A, sequence (P45481 586-665 L599A limits assumed): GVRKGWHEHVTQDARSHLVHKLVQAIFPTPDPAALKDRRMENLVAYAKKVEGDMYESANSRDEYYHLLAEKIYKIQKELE

CBP KIX variant Y658A = CBP KIX variant Y658A (UniProt P45481); assay: fluorescence polarization
CBP KIX variant Y658A, sequence (P45481 586-665 Y658A limits assumed): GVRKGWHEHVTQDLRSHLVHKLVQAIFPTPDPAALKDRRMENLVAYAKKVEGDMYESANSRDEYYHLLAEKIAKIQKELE

[5] = target: CBP KIX variant Y650A (Example 20) (UniProt P45481); assay: fluorescence polarization
CBP KIX variant Y650A (Example 20), sequence (P45481 586-665 Y650A limits assumed): as the sequence (P45481 586-665 Y650A limits assumed) above

CBP KIX variant I660A = CBP KIX variant I660A (UniProt P45481); assay: fluorescence polarization
CBP KIX variant I660A, sequence (P45481 586-665 I660A limits assumed): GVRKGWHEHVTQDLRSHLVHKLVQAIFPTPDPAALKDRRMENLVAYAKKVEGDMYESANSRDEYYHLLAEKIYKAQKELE

CBP KIX variant Q661A = CBP KIX variant Q661A (UniProt P45481); assay: fluorescence polarization
CBP KIX variant Q661A, sequence (P45481 586-665 Q661A limits assumed): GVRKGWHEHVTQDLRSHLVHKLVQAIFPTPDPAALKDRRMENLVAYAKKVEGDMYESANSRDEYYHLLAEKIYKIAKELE

[6] = target: HisKIX (His-tagged CBP KIX domain) (UniProt P45481); assay: fluorescence polarization at 150 µM HisKIX
HisKIX (His-tagged CBP KIX domain), sequence (P45481 586-672): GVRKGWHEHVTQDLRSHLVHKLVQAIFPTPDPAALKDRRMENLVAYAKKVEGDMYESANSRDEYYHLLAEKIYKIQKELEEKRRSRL

[7] = target: HisKIX (His-tagged CBP KIX domain) (UniProt P45481); assay: fluorescence polarization at 325 µM HisKIX
[8] = target: catalytic subunit of cAMP-dependent protein kinase (PKA); assay: cell-based or functional assay

CBP KIX variant LL652-3AA, sequence (P45481 other isoform, or with tags, fused parts or gaps mutant limits assumed): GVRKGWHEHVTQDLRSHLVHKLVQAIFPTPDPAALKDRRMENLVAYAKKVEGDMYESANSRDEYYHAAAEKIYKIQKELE
CBP KIX variant Y658F, sequence (P45481 586-665 Y658F limits assumed): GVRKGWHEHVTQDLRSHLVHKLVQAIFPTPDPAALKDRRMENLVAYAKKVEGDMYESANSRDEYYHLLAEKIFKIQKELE

Q: Which fold activation of Gal4 luciferase reporter in HEK293 cells, with forskolin [1] does the source give for “Gal4 DBD (residues 1-147) fusion of KID-AB (from UniProt P04386 1-147)” here?
A: 7.5 fold

Q: What about the fold activation of Gal4 luciferase reporter, with forskolin and exogenous p300 [2] of the same substance?
A: 20 fold

Q: Which results are given for “KID-AB^P (full-length CREB KID domain, residues 119-148, phosphorylated), fluorescein-labelled (peptide)”?
A: Kd (CBP KIX variant Y658F): 26000 nM; ΔΔG against wild type CBP KIX (CBP KIX variant Y658F): 2.5 kcal/mol; Kd [3]: 2900 nM; ΔΔG against wild type CBP KIX [3]: 1.2 kcal/mol; Kd (CBP KIX variant K606A): 2300 nM; ΔΔG against wild type CBP KIX (CBP KIX variant K606A): 1 kcal/mol; Kd (CBP KIX variant K662A): 4800 nM; ΔΔG against wild type CBP KIX (CBP KIX variant K662A): 1.5 kcal/mol; fold less stable than the wild type GST-KIX complex [4]: 15 fold; Kd (CBP KIX variant L603A): 3400 nM; ΔΔG against wild type CBP KIX (CBP KIX variant L603A): 1.2 kcal/mol; Kd (CBP KIX variant E655A): 710 nM; ΔΔG against wild type CBP KIX (CBP KIX variant E655A): 0.32 kcal/mol; Kd (CBP KIX variant I657A): 1900 nM; ΔΔG against wild type CBP KIX (CBP KIX variant I657A): 0.9 kcal/mol; Kd (CBP KIX variant L599A): 1100 nM; ΔΔG against wild type CBP KIX (CBP KIX variant L599A): 0.58 kcal/mol; Kd (CBP KIX variant Y658A): 142000 nM; ΔΔG against wild type CBP KIX (CBP KIX variant Y658A): 3.5 kcal/mol; Kd [5]: 9400 nM; ΔΔG against wild type CBP KIX [5]: 1.8 kcal/mol; Kd (CBP KIX variant I660A): 270 nM; ΔΔG against wild type CBP KIX (CBP KIX variant I660A): -0.26 kcal/mol; Kd (CBP KIX variant Q661A): 930 nM; ΔΔG against wild type CBP KIX (CBP KIX variant Q661A): 0.48 kcal/mol

Q: With “KID-AB^U, fluorescein-labelled (peptide)” as the substance, how does the change in polarization [6] read?
A: 61 mP

Q: Which change in polarization [7] does the source give for KID-B^U, fluorescein-labelled (peptide) here?
A: 76 mP

Q: With “PKI^A21C alkylated with bromoacetamide (peptide)” as the substance, how does the IC50, inhibition of PKA phosphotransferase activity [8] read?
A: > 1000 nM
